Laboratory results reported in patent US20110091994A1, “Methods for Screening Compounds for Treating and/or Preventing an Hepatitis C Virus Infection” (priority 2008, published 2011).
Where two headings read alike, the source gives them in different places.

Experiments:
[1] = system: HCV ORFs (Gal4-DB fusions); format: binding, HCV genotype 1b, isolate con1; conditions: human protein listed by gene symbol; the value names the HCV protein it interacts with
Method: (§1) HCV ORFs were transferred from pDONR223 into bait vector (pPC97) to be expressed as Gal4-DB fusions in yeast. Two different screening methods were used (IMAP1 and IMAP2). Both for IMAP1 and IMAP2 strategies and because bait constructs sometimes self-transactivate reporter genes, SD-L-H culture medium were supplemented with 3-aminotriazole (3-AT). Appropriate concentrations of this drug were determined by growing bait strains on SD-L-H medium supplemented with increasing concentrations of 3-AT. […] For IMAP1, bait vectors were introduced in MAV203 yeast strain and both human spleen and foetal brain AD-cDNA libraries (Invitrogen) were screened by transformation as described (7). All primary positive clones (selected on SD-W-L-H+3-AT) were tested by further phenotypic assay using two additional reporter genes: LacZ (X-Gal colorimetric assay) and URA3 (growth assay on 5-FOA supplemented medium). […] AD-cDNA were PCR-amplified and inserts were sequenced to identify interactors. IMAP2 screens were performed by yeast mating, using AH109 and Y187 yeast strains (Clontech (8)). Bait vectors were transformed into AH109 (bait strain) and human spleen and foetal brain AD-cDNA libraries (Invitrogen) were transformed into Y187 (prey strain). Single bait strains were mated with prey strains then diploids were plated on SD-W-L-H+3-AT medium. Positive clones were maintained onto this selective medium for 15 days to eliminate any contaminant AD-cDNA plasmid (9). AD-cDNAs were PCR amplified and inserts were sequenced.
(§2) We have developed a bioinformatic pipeline that assigns each IST to its native human genome transcript. […] Gal4 motif was searched (last 87 bases of GAL4-AD), sequences downstream of this motif were translated into peptides and aligned using BLASTP against the REFSEQ (http://www.ncbi.nlm.nih.gov/RefSeq/) human protein sequence database (release 04/2007). Low-confidence alignments (E value>10^−10, identity <80%) and premature STOP codon containing sequences were eliminated. Only in-frame proteins and high quality sequences were further considered

[2] = molecular target: T1, HCV ORFs (Gal4-DB fusions) (Hepatitis C virus genotype 1b, UniProt Q9WMX2); format: binding, HCV genotype 1b, isolate con1; conditions: human protein as prey
T1 construct: expressed in transfected cells; host or cells: Saccharomyces cerevisiae MAV203 (IMAP1) / AH109 (IMAP2)
Method: as §1, §2
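Also: yeast two-hybrid screens using HCV genotype 1b proteins fused to Gal4-DB as baits against prey cDNA libraries from human spleen and foetal brain, IMAP1 via transformation and IMAP2 via mating.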

Row | Molecule | Interaction with viral protein [1] | IMAP Y2H IMAP2 (number of IST) ([2]; HCV protein NS5B as bait) | IMAP Y2H IMAP2 (number of IST) ([2]; HCV protein NS5A as bait) | IMAP Y2H IMAP2 (number of IST) ([2]; HCV protein NS3 as bait)
1 | OS9 (protein, UniProt Q13438 26-667, looked up) Protein OS-9: GGVGSLNLEELSEMRYGIEILPLPVMGGQSQSSDVVIVSSKYKQRYECRLPAGAIHFQREREEETPAYQGPGIPELLSPMRDAPCLLKTKDWWTYEFCYGRHIQQYHMEDSEIKGEVLYLGYYQSAFDWDDETAKASKQHRLKRYHSQTYGNGSKCDLNGRPREAEVRFLCDEGAGISGDYIDRVDEPLSCSYVLTIRTPRLCPHPLLRPPPSAAPQAILCHPSLQPEEYMAYVQRQADSKQYGDKIIEELQDLGPQVWSETKSGVAPQKMAGASPTKDDSKDSDFWKMLNEPEDQAPGGEEVPAEEQDPSPEAADSASGAPNDFQNNVQVKVIRSPADLIRFIEELKGGTKKGKPNIGQEQPVDDAAEVPQREPEKERGDPERQREMEEEEDEDEDEDEDEDERQLLGEFEKELEGILLPSDRDRLRSEVKAGMERELENIIQETEKELDPDGLKKESERDRAMLALTSTLNKLIKRLEEKQSPELVKKHKKKRVVPKKPPPSPQPTEEDPEHRVRVRVTKLRLGGPNQDLTVLEMKRENPQLKQIEGLVKELLEREGLTAAGKIEIKIVRPWAEGTEEGARWLTDEDTRNLKEIFFNILVPGAEEAQKERQRQKELESNYRRVWGSPGGEGTGDLDEFDF | NS5A | 3 |  | 
2 | PARVG (protein, UniProt Q9HBI0 1-331, looked up) Gamma-parvin: MEPEFLYDLLQLPKGVEPPAEEELSKGGKKKYLPPTSRKDPKFEELQKVLMEWINATLLPEHIVVRSLEEDMFDGLILHHLFQRLAALKLEAEDIALTATSQKHKLTVVLEAVNRSLQLEEWQAKWSVESIFNKDLLSTLHLLVALAKRFQPDLSLPTNVQVEVITIESTKSGLKSEKLVEQLTEYSTDKDEPPKDVFDELFKLAPEKVNAVKEAIVNFVNQKLDRLGLSVQNLDTQFADGVILLLLIGQLEGFFLHLKEFYLTPNSPAEMLHNVTLALELLKDEGLLSCPVSPEDIVNKDAKSTLRVLYGLFCKHTQKAHRDRTPHGAPN | NS5A |  | 1 | 
3 | PMVK (protein, UniProt Q15126 1-192, looked up) Phosphomevalonate kinase: MAPLGGAPRLVLLFSGKRKSGKDFVTEALQSRLGADVCAVLRLSGPLKEQYAQEHGLNFQRLLDTSTYKEAFRKDMIRWGEEKRQADPGFFCRKIVEGISQPIWLVSDTRRVSDIQWFREAYGAVTQTVRVVALEQSRQQRGWVFTPGVDDAESECGLDNFGDFDWVIENHGVEQRLEEQLENLIEFIRSRL | NS5A |  | 1 | 
4 | RRBP1 (protein, UniProt Q9P2E9 1-1410, looked up) Ribosome-binding protein 1: MDIYDTQTLGVVVFGGFMVVSAIGIFLVSTFSMKETSYEEALANQRKEMAKTHHQKVEKKKKEKTVEKKGKTKKKEEKPNGKIPDHDPAPNVTVLLREPVRAPAVAVAPTPVQPPIIVAPVATVPAMPQEKLASSPKDKKKKEKKVAKVEPAVSSVVNSIQVLTSKAAILETAPKEVPMVVVPPVGAKGNTPATGTTQGKKAEGTQNQSKKAEGAPNQGRKAEGTPNQGKKTEGTPNQGKKAEGTPNQGKKAEGTPNQGKKAEGAQNQGKKVDTTPNQGKKVEGAPTQGRKAEGAQNQAKKVEGAQNQGKKAEGAQNQGKKGEGAQNQGKKAEGAQNQGKKAEGAQNQGKKAEGAQNQGKKAEGAQNQGKKAEGAQNQGKKAEGAQNQGKKVEGAQNQGKKAEGAQNQGKKAEGAQNQGKKAEGAQNQGKKAEGAQNQGKKAEGAQNQGKKAEGAQNQGKKAEGAQNQGKKVEGAQNQGKKAEGAQNQGKKAEGAQNQGKKAEGAQNQGQKGEGAQNQGKKTEGAQGKKAERSPNQGKKGEGAPIQGKKADSVANQGTKVEGITNQGKKAEGSPSEGKKAEGSPNQGKKADAAANQGKKTESASVQGRNTDVAQSPEAPKQEAPAKKKSGSKKKGEPGPPDADGPLYLPYKTLVSTVGSMVFNEGEAQRLIEILSEKAGIIQDTWHKATQKGDPVAILKRQLEEKEKLLATEQEDAAVAKSKLRELNKEMAAEKAKAAAGEAKVKKQLVAREQEITAVQARMQASYREHVKEVQQLQGKIRTLQEQLENGPNTQLARLQQENSILRDALNQATSQVESKQNAELAKLRQELSKVSKELVEKSEAVRQDEQQRKALEAKAAAFEKQVLQLQASHRESEEALQKRLDEVSRELCHTQSSHASLRADAEKAQEQQQQMAELHSKLQSSEAEVRSKCEELSGLHGQLQEARAENSQLTERIRSIEALLEAGQARDAQDVQASQAEADQQQTRLKELESQVSGLEKEAIELREAVEQQKVKNNDLREKNWKAMEALATAEQACKEKLLSLTQAKEESEKQLCLIEAQTMEALLALLPELSVLAQQNYTEWLQDLKEKGPTLLKHPPAPAEPSSDLASKLREAEETQSTLQAECDQYRSILAETEGMLRDLQKSVEEEEQVWRAKVGAAEEELQKSRVTVKHLEEIVEKLKGELESSDQVREHTSHLEAELEKHMAAASAECQNYAKEVAGLRQLLLESQSQLDAAKSEAQKQSDELALVRQQLSEMKSHVEDGDIAGAPASSPEAPPAEQDPVQLKTQLEWTEAILEDEQTQRQKLTAEFEEAQTSACRLQEELEKLRTAGPLESSETEEASQLKERLEKEKKLTSDLGRAATRLQELLKTTQEQLAREKDTVKKLQEQLEKAEDGSSSKEGTSV | NS5A |  | 2 | 
5 | SORBS3 (protein, UniProt O60504 1-671, looked up) Vinexin: MQGPPRSLRAGLSLDDFIPGHLQSHIGSSSRGTRVPVIRNGGSNTLNFQFHDPAPRTVCNGGYTPRRDASQHPDPAWYQTWPGPGSKPSASTKIPASQHTQNWSATWTKDSKRRDKRWVKYEGIGPVDESGMPIAPRSSVDRPRDWYRRMFQQIHRKMPDLQLDWTFEEPPRDPRHLGAQQRPAHRPGPATSSSGRSWDHSEELPRSTFNYRPGAFSTVLQPSNQVLRRREKVDNVWTEESWNQFLQELETGQRPKKPLVDDPGEKPSQPIEVLLERELAELSAELDKDLRAIETRLPSPKSSPAPRRAPEQRPPAGPASAWSSSYPHAPYLGSARSLSPHKMADGGSPFLGRRDFVYPSSTRDPSASNGGGSPARREEKKRKAARLKFDFQAQSPKELTLQKGDIVYIHKEVDKNWLEGEHHGRLGIFPANYVEVLPADEIPKPIKPPTYQVLEYGEAVAQYTFKGDLEVELSFRKGEHICLIRKVNENWYEGRITGTGRQGIFPASYVQVSREPRLRLCDDGPQLPTSPRLTAAARSARHPSSPSALRSPADPIDLGGQTSPRRTGFSFPTQEPRPQTQNLGTPGPALSHSRGPSHPLDLGTSSPNTSQIHWTPYRAMYQYRPQNEDELELREGDRVDVMQQCDDGWFVGVSRRTQKFGTFPGNYVAPV | NS5A |  | 1 | 
6 | TP53BP2 (protein, UniProt Q13625 1-1128, looked up) Apoptosis-stimulating of p53 …: MMPMFLTVYLSNNEQHFTEVPVTPETICRDVVDLCKEPGESDCHLAEVWCGSERPVADNERMFDVLQRFGSQRNEVRFFLRHERPPGRDIVSGPRSQDPSLKRNGVKVPGEYRRKENGVNSPRMDLTLAELQEMASRQQQQIEAQQQLLATKEQRLKFLKQQDQRQQQQVAEQEKLKRLKEIAENQEAKLKKVRALKGHVEQKRLSNGKLVEEIEQMNNLFQQKQRELVLAVSKVEELTRQLEMLKNGRIDSHHDNQSAVAELDRLYKELQLRNKLNQEQNAKLQQQRECLNKRNSEVAVMDKRVNELRDRLWKKKAALQQKENLPVSSDGNLPQQAASAPSRVAAVGPYIQSSTMPRMPSRPELLVKPALPDGSLVIQASEGPMKIQTLPNMRSGAASQTKGSKIHPVGPDWSPSNADLFPSQGSASVPQSTGNALDQVDDGEVPLREKEKKVRPFSMFDAVDQSNAPPSFGTLRKNQSSEDILRDAQVANKNVAKVPPPVPTKPKQINLPYFGQTNQPPSDIKPDGSSQQLSTVVPSMGTKPKPAGQQPRVLLSPSIPSVGQDQTLSPGSKQESPPAAAVRPFTPQPSKDTLLPPFRKPQTVAASSIYSMYTQQQAPGKNFQQAVQSALTKTHTRGPHFSSVYGKPVIAAAQNQQQHPENIYSNSQGKPGSPEPETEPVSSVQENHENERIPRPLSPTKLLPFLSNPYRNQSDADLEALRKKLSNAPRPLKKRSSITEPEGPNGPNIQKLLYQRTTIAAMETISVPSYPSKSASVTASSESPVEIQNPYLHVEPEKEVVSLVPESLSPEDVGNASTENSDMPAPSPGLDYEPEGVPDNSPNLQNNPEEPNPEAPHVLDVYLEEYPPYPPPPYPSGEPEGPGEDSVSMRPPEITGQVSLPPGKRTNLRKTGSERIAHGMRVKFNPLALLLDSSLEGEFDLVQRIIYEVDDPSLPNDEGITALHNAVCAGHTEIVKFLVQFGVNVNAADSDGWTPLHCAASCNNVQVCKFLVESGAAVFAMTYSDMQTAADKCEEMEEGYTQCSQFLYGVQEKMGIMNKGVIYALWDYEPQNDDELPMKEGDCMTIIHREDEDEIEWWWARLNDKEGYVPRNLLGLYPRIKPRQRSLA | NS5A |  | 2 | 
7 | BCL2A1 (protein, UniProt Q16548 1-175, looked up) Bcl-2-related protein A1: MTDCEFGYIYRLAQDYLQCVLQIPQPGSGPSKTSRVLQNVAFSVQKEVEKNLKSCLDNVNVVSVDTARTLFNQVMEKEFEDGIINWGRIVTIFAFEGILIKKLLRQQIAPDVDTYKEISYFVAEFIMNNTGEWIRQNGGWENGFVKKFEPKSGWMTFLEVTGKICEMLSLLKQYC | NS3 |  |  | 1
8 | C16orf7 (protein, UniProt Q9Y2B5 1-631, looked up) VPS9 domain-containing …: MAAAAGDGTVKPLQSAMKLANGAIELDTGNRPREAYTEYLRSIHYISQVLLEEVETTKEAGETVPPDTSKMLKLAQQCLERAQSTAAKLGKTRLKPTMPAAAPIPQPAGRHRRVYSDEGGKLSPFLPPEIFQKLQGAESQSCKKELTPLEEASLQNQKLKAAYEARMARLDPSQAMQKTSLTLSLQRQMMENLVIAKAREETLQRKMEERRLRLQEAANRRFCSQVALTPEEREQRALYAAILEYEQDHDWPKHWKAKLKRNPGDLSLVTSLVSHLLSLPDHPIAQLLRRLQCSVYSALYPAVSRAAAPAPGCCPPTPNPGSRRLRPSQSLHCMLSPPEPSAAPRPQDSPPTPPLQPGPVGSPSPLGDTASGLPDKDSSFEDLEQFLGTSERQGRGRGVQPEPQLQQLKTAVEEIHNAVDRLLSLTLLAFEGLNTAASKDRCLACIEEPFFSPLWPLLLALYRSVHRAREAALSRSMELYRNAPPTAIGIPTKLLPQNPEAKGATGYPYCAAAQELGLLVLESCPQKKLECIVRTLRIICVCAEDYCPTPEATPQAGPPPIAAAAIGADDLLPILSFVVLRSGLPQLVSECAALEEFIHEGYLIGEEGYCLTSLQSALSYVELLPRGGLAK | NS3 |  |  | 1
